B1: Mitochondrial import inner membrane translocase subunit TIM23 (Saccharomyces cerevisiae), P32897 (parent)
chain: MSWLFGDKTPTDDANAAVGGQDTTKPKELSLKQSLGFEPNINNIISGPGGMHVDTARLHPLAGLDKGVEYLDLEEEQLSSLEGSQGLIPSRGWTDDLCYGTGAVYLLGLGIGGFSGMMQGLQNIPPNSPGKLQLNTVLNHITKRGPFLGNNAGILALSYNIINSTIDALRGKHDTAGSIGAGALTGALFKSSKGLKPMGYSSAMVAAACAVWCSVKKRLLEK
partner: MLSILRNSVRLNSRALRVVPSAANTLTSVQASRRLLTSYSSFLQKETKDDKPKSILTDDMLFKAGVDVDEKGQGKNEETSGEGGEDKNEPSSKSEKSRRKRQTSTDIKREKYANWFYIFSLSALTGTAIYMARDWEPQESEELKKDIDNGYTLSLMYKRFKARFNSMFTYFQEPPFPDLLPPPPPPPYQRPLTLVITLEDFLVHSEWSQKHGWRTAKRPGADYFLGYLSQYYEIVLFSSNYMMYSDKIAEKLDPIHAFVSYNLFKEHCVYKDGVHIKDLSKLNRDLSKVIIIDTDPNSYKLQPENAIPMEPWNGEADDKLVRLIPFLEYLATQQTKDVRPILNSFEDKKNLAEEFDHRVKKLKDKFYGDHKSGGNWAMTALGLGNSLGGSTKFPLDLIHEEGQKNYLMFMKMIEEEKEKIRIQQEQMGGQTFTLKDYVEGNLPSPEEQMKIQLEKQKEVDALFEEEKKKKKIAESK

Variants of: B1
Details: with tim50_yeast TIM50, Q02776

Row | effect of a mutation on the interaction | Variant
1 | disrupting interaction | Y70A;L71A
